Experiment: soluble on expression in E. coli; label from the status in PepcDB or PDB records

Sequence | soluble on expression in E. coli
MNKEITFDKLPEAVTYLTEQVSAIKEMVSALHPPVPEEKSLIGIDEACVIIQKAKPTIYALVRKGIVPAYKRGKKLYFYKEELLQWVESGRKGATTAISSEEQLAMMRQEVRRKPKSIK | not soluble
MSLQIQGQIVDIENKRIYSGEITIQNGKIISIIEKNHEVKNYILPGFIDAHIHIESSMLVPSEFAKIAVLHGTVATISDPHEIANVLGKKGVYYMIENGKQVPLKFHFGAPSCVPATAFETAGAIIDSEEIKELMASPDIYYLSEMMNYPGVLFDDDEVLKKIAWAKHFNKPIDGHAPGLRGEPIKKYISAGITTDHECFTYSEAQEKLSLGMKVIIREGSAAKNFEALIDLLPANYENMMFCSDDKHPDDLILGHINLLCARAVAKGIDVFKILQVACVNPVHHYKMKVGLLKKNDAADFIVVEDLVNFKVNKTYINGELVAENGQSFVENINFETPNNFNITKKKISDFEIPSLAEKIRVIEALEGQLITNEIHHNSFIKNGKLVSDIENDILKMAVVNRYQNTTPAIAFIKNFGLKKGAIASSVAHDCHNIVVVGTSDEEICNAVNLIIKNTGGICAVNGTQNKSLALPVAGIMSDKDAWETGKLYQEIDAMAKDLGSTLKAPFMTLSFMALLVIPDLKLSDKGLFSGNTFSFVDLNVEEGHHHHHH | soluble
MEKAIHNLGKDARLHIIHILLQNRSKKELADELGITPAAITKYLKGITHPSDEIIEKCIEIASEDEEYHEIIKVIVSDITEALMELLREIGIEKMIDNEDIQKLKKLLDKAFDKMLSTSPSFV | not soluble
DDEFLRGKRVLVVDDNFISRKVATGKLKKMGVSEVEQCDSGKEALRLVTEGLTQREEQGSVDKLPFDYIFMDCQMPEMDGYEATREIRKVEKSYGVRTPIIAVSGHDPGSEEARETIQAGMDAFLDKSLNQLANVIREIESKR | soluble
MPMSTDVQGRALAVLNRVAQADWPDRFNLRKPFEKLLYSGSRTGFRLASERSAKQAKGPRKADPDGLFDLSFSDDQQMLVDMLEGFALEVLRPLAHDADAEASLPAELLNQALELGLTHYGVGEVHGGMAGERTTVTTALIAEALAKGDLTLAAALLVPLSAANCIRRWGSPSQQAQWLPAFVSEEGAPLTAIAVNEPSLLFDPQKLATRARRKGSHYLLSGEKCLVLRGLEASRLIVAAKTDEGPALFLVEASAKGVERRAEPAMGLKAGGTARLRLKSVKVPADNRLAAEHFDYRAFLDHASLAWCALALGTGQAALDYVIAYCNEREAFGEPISHRQGVAFMVADIAIELDAMRLMVWRACALAERGQPFQREAYLARLLCAEKAMKIGTDAVQLLGGHGFT | not soluble
MSLLGTGYLPDGTHMPGANPNLNIAAFLKENHIDLHTTVYPGGGLDPYTSVEFLNIVSKHCKTVFSNANEVLNTIPNSIYVPGIINTEFYHYNQKVSTKPIQMIFAAHNAERKGFPLLAQAFNKLDDQFHLHIVGNWENSLHLLTNNNYTFWGMLDLEKLKQLYEQSHVFISCSTKDKFAIDGFPTTAAADAMATGCILVSTNHRNDNRILKPGEDYLKIEADSNSILSNLFWIKMNFEKALEIGKSGAIKMDKYFNYKTNVNFKLSHIF | not soluble
KKNNVYPELEAFIGKEIIFSDKNFNTVGNKAFKDQFLLISYVDSGNCTPCSLEKMQYMKTNKRRLLDTHTGVLMIVHEKDTFTVNEVFRQMHVSYPIFFDSLGCFKKENGIFDNPLYQDFVIDRSNKVVWLGNPLRNKQSWQQYEKAISMLMD | not soluble
MRKMMRQSLQAVLPEISGNKTSLLRKSVCSDLLTLFNSPHSALPSLLVSGMPEWQVHNPSDKHLQSWYCRQLRSALLFHEPRIAALQVNLKEAYCHTLAISLEIMLYHDDEPLTFDLVWDNGGWRSATLENVS | not soluble
MGSDKIHHHHHHMFVNRKEELEFLERKWREEGAQLIIIYGRRRIGKTMLLKEFLKGKRGIYFLATADSMAENIRGLAEKFTKLTRREYFMEVRDFRRLFRYLAEEMGKERVAVVLDEFQYLISLDPGILSVLQKIWDEYLKDTGIFLILCGSSIGMMERTLEYKSPLYGRRTGAWKVKPFDIRGIAEMFPERSMEELVKIYAVFGGVPFYLDLIRNLSVENAIKERILKKGEILYEEPEFLLREELREPRVYKLILKGLALGYESLGELINFTGLDRGNLSKYLDTLERLELVGYELPYGKRKRGQYYIRDNFFNFWFRFVYPNLADLELGLVNEVWERISGEINAYYGKMFERLVREMLRLRILDFGQKGVSRWWHRGEEIDAIAELKDKLLFVEVKWKDLNRREARKILKDLKRKSERFEGEKEFLLIAKRIEDKEEGMLDLEDLEKVIRNL | not soluble
MSLLKQRFVLDTTALTDLQTREVMGYASLCEGMKAILDLIADARLHFGISCYVPYPSVYKEMYEFASRNGCDREVVAKIDTWLVKKSPDRYRVSVTSQIFHEYVAYMRERINRGMGVAEDAIWEAATECLFMENPQNKKKEYKEEVEREVIGGIIGKFRNKYRAALRYGILDSAPDIDVLILAKELDAAVIASDYGIEKWAEQLGVRFVPANVFPMMIQEYLKHLPENENEPEYENRDKSKEGSSGEIEFIEGHHHHHH | soluble
MSLTLLKGRRKVDTIKVGILGYGLSGSVFHGPLLDVLDEYQISKIMTSRTEEVKRDFPDAEVVHELEEITNDPAIELVIVTTPSGLHYEHTMACIQAGKHVVMEKPMTATAEEGETLKRAADEKGVLLSVYHNRRWDNDFLTIKKLISEGSLEDINTYQVSYNRYRPEVQARWREKEGTATGTLYDLGSHIIDQTLHLFGMPKAVTANVMAQRENAETVDYFHLTLDYGKLQAILYGGSIVPANGPRYQIHGKDSSFIKYGIDGQEDALRAGRKPEDDSWGADVPEFYGKLTTIRGSDKKTETIPSVNGSYLTYYRKIAESIREGAALPVTAEEGINVIRIIEAAMESSKEKRTIMLEHEGHHHHHH | soluble
MFPIHYQFSIIHYPLKKEMKLNLKNPIVFFDLETTGTNINTDRIVEICYLKVYPNGNEETKTMRINPEMHIPEASSAVHGIYDADVADCPTFKEVAKNVARDIEGCDLAGFNSNRFDIPVLAEEFLRAGVDIDMTKRKFVDVQVIFHKMEQRTLSAAYKFYCEKSLEDAHTAEADTRATYEVLKAQLDRYPDLQNDIAFLAEYSSFTKNVDFAGRMVYDDNGVEVFNFGKYKGMSVAEVLKKDPGYYSWILNSDFTLNTKAVLTKIRLREMSNLITK | soluble
MVGYAEPVLIERQSVVAAPAEQVWQRVVTPEGINDELRPWMTMSVPRGAKGMTVDTVPIGAPIGRAWLRLFGVLPFDYDRLSIAELEPGRRFREDSTMLSMRQWQHERTVTPEGDTKTIVRDRITFQTRAGLRFAAPLIAAGLRALFGHRHRRLQRHFAQGLEHHHHHH | soluble
SLRRWDQGLEKPRLDYSEFFTEDVGQLPGLTIWQIENFVPVLVEEAFHGKFYEADCYIVLKTFLDDSGSLNWEIYYWIGGEATLDKKACSAIHAVNLRNYLGAECRTVREEMGDESEEFLQVFDNDISYIEGGTASGFYTVEDTHYVTRMYRVYGKKNIKLEPVPLKGSSLDPRFVFLLDQGLDIYVWRGAQATLSNTTKARLFAEKINKNERKGKAEITLLVQGQEPPGFWDVLGGEPSEIKNHVPDDFWPPQPKLYKVGLGLGYLELPQINYKLSVEHKKRPKVELMPGMRLLQSLLDTRCVYILDCWSDVFIWLGRKSPRLVRAAALKLGQELCGMLHRPRHTVVSRSLEGTEAQVFKAKFKNWDDVLTVDYTRNAEAVLQGQGLSGKVKRDTEKTDQMKADLTALFLPRQPPMPLAEAEQLMEEWNEDLDGMEGFVLEGRKFTRLPEEEFGHFYTQDCYVFLCRYWVPVEYEEEEKTEDKEGKASAEAREGEEAAAEAEEKQPEEDFQCIVYFWQGREASNMGWLTFTFSLQKKFESLFPGKLEVVRMTQQQENPKFLSHFKRKFIIHRGKRKVTQGTLQPTLYQIRTNGSALCTRCIQINTDSSLLNSEFCFILKVPFESEDNQGIVYAWVGRASDPDEAKLAEDILNTMFDASYSKQVINEGEEPENFFWVGIGAQKPYDDDAEYMKHTRLFRCSNEKGYFAVTEKCSDFCQDDLADDDIMLLDNGQEVYMWVGTQTSQVEIKLSLKACQVYIQHTRSKEHERPRRLRLVRKGNEQRAFTRCFHAWSTFRQAPA | not soluble
MSLSQPIYKRILLKLSGEALQGEDGLGIDPAILDRMAVEIKELVEMGVEVSVVLGGGNLFRGAKLAKAGMNRVVGDHMGMLATVMNGLAMRDSLFRADVNAKLMSAFQLNGICDTYNWSEAIKMLREKRVVIFSAGTGNPFFTTDSTACLRGIEIEADVVLKATKVDGVYDCDPAKNPDAKLYKNLSYAEVIDKELKVMDLSAFTLARDHGMPIRVFNMGKPGALRQVVTGTEEGTTICEGHHHHHH | soluble
MRPSAIVLAGGKEAWAERFGVGSKALVPYRGRPMVEWVLEALYAAGLSPVYVGENPGLVPAPALTLPDRGGLLENLEQALEHVEGRVLVATGDIPHLTEEAVRFVLDKAPEAALVYPIVPKEAVEARFPRTKRTYARLREGTFTGGNLLLLDKSLFRKALPLARRVVALRKRPLALARLVGWDVLLKLLLGRLSLAEVEARAQRILGVEARALVTPYPEVGVDVDREEDLVS | soluble
MISVTFRQILGLVSLLCATWLYSQCRHIWLLAQDDFNEQFTNFLGEKWWSTDQLELCDDETKDTKWQKNDSICITYVYNMLPVDMEIISWAPTLVIYRNLMSPRQTASFLNFIEQRDLEIQKTSDFGTSIETTHRRANGSFIPPEDSNVTVEIKMQAQKRIPGLNLTVAEHFSALSYLPGGHYAVHYDYLDYRSKQDYDWWMNKTGNRIGTLIFVLKPAEKGGGTVFPSIGSTVRANAGDAFFWFNAQADEEKEMLSNHGGCPIYEGRKVIATIWIRAYNQRILPMAPAGSSIHASWLIPSLSNRFRPEMQTQSPVPN | not soluble
HWCNIAGWPDFDTFLATMDHKHRKNIRQERAKVARSGVRIQSIHGDEATPIELKAMHHFYVNTFHQYGNAPALTLPFLTHLAKTIPRQLVLFMATLNGKLIGGSLCLRSAKTLYGRHWGGAALPGLHFETCYYQGIDYCLREGLTRFEPGAQGKHKIARG | not soluble
MAHHHHHHMSTVEDFVLQALASTDAVESDKLAETLRVNHQDVVGAIKSLEADGYVVSEIKPKPTWKLTSEAENICESGSPEFLLWELLAGGAMTQEDIAEKFGKDVAAVAVANGMKAKIFALNKSEGKIIVTRSPSVSSFHDGIRVSLMRALKGEHVDPKEAETLKKRKLATLDNMKVFFVTKGPNYATQRRAKAVGDLTKEMLQDGSWKTAHFKEYNLGAAGREVGCGQLHPLLKVRQEFREIFMELGFREMETDRWVESSFWNFDALFIAQNHPARDVQDTFFVSKPSTHKLDHREVVDRVREMHEKNFNYTWKEEEARRNVLRTHTTCCSGYWLHHIAKSSPLLPNGRRDFCPGRYYSIDRVFRNEEMDRTHLCEFHQVEGCVIDRNISLSNMMHTFQLFFSRIGVEKLRFKPVFNPYTEPSMEIFGWHKQLKRWIEVGNSGLFRPEMLVPLGFDEDVTVMAWGLSLERPTMIKYGLSSIHELFGHKVDLRFIKQSKLMRF | soluble
MGSDKIHHHHHHFKLLAADGDSLLVGARNAVYNLSLSTLSVNHKIDWKPPAEHIEECIMKGKSKTDCQNYIRVLARKSAGVSLVCGTHAFSPKCREYTVTEFGIRNTRQFDGQGISPYDPKHNSSALYVPGTNQLFVATVTDFVGNDALIYRKTIDETPSSKSAANIRTQSYDARVLNAPNFVATFAYKEHVYFWFREIASEAIDNNEEPQIYARVARVCKNDKGGARPANERWTSYLKARLNCSLPSGSSPFYFNELKAVSDPIDAGNNNHVVYTVFSTPDSDVRMSAVCKFSMKKIREEFDNGTFKHQNNAQSMWMAFNRNEVPKPRPGSCSPDSTKLPENTVSFILHHPLLHRPIPSVAAPLLVEGADRADLTQITVLPRVRAVGGHNYDILFIGTSDGKVLKVVEVDGNATVIQSATVFQRGVPIVNLLTTKES | not soluble
MDILKLSDFIGNTLIVSLTEDRILVGSLVAVDAQMNLLLDHVEERMGSSSRMMGLVSVPRRSVKTIMIDKPVLQELTANKVELMANIV | not soluble
